Test results published in article PMC5297857.

Biological target: soluble form of human TNFα (aa 77–233), wild-type (human)
Test: crystal structure; purified TNFα and certolizumab Fab mixed in a 1:1 molar ratio, complex isolated by size exclusion chromatography (20 mM Tris pH 8.0, 300 mM NaCl); hanging-drop crystals at 20 °C; 2.89 Å, three copies in the asymmetric unit

stoichiometry N: 3
Substance: soluble form of human TNFα (aa 77–233), wild-type (ligand)
